How the values were obtained:
[1] = biological target: T1, HIZR-1 S30L (Caenorhabditis elegans, UniProt G5ED47 1-412, S30L); assay: EMSA; legend: not bound; text: dramatically reduced; faint fast band of unknown significance; Licor Odyssey EMSA Buffer Kit per manufacturer; buffer composition, salt, pH and temperature not stated; conditions: protein: recombinant; tags: N-terminal 6xHis (pTrcHisA); label: IRDye700
T1 sequence: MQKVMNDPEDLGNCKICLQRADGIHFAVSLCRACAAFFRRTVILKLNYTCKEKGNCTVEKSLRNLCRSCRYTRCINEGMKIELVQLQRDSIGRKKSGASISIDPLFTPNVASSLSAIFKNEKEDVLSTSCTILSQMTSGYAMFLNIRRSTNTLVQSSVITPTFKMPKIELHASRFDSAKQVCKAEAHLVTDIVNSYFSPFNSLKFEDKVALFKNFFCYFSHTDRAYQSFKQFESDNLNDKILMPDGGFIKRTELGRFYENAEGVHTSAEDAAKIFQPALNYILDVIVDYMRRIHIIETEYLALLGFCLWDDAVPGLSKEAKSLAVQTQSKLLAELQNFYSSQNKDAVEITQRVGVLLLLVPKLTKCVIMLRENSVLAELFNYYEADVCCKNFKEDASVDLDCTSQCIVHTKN

[2] = biological target: T2, HIZR-1 G23E (Caenorhabditis elegans, UniProt G5ED47 1-412, G23E); assay: EMSA; legend: not bound; text: dramatically reduced; Licor Odyssey EMSA Buffer Kit per manufacturer; buffer composition, salt, pH and temperature not stated; conditions: protein: recombinant; tags: N-terminal 6xHis (pTrcHisA); label: IRDye700
T2 sequence: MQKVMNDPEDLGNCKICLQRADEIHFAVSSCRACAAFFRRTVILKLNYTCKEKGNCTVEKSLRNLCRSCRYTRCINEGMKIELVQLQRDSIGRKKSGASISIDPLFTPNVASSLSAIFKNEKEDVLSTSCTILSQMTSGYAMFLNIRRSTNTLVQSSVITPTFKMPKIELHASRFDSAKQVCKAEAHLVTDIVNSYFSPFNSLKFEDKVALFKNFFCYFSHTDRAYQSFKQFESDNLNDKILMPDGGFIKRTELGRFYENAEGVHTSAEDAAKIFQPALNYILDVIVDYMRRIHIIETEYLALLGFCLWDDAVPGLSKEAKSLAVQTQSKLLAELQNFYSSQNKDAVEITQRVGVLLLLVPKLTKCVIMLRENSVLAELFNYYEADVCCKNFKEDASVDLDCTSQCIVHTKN

[3] = biological target: T3, HIZR-1 R63C (Caenorhabditis elegans, UniProt G5ED47 1-412, R63C); assay: as above; conditions: protein: recombinant; tags: N-terminal 6xHis (pTrcHisA); label: IRDye700
T3 sequence: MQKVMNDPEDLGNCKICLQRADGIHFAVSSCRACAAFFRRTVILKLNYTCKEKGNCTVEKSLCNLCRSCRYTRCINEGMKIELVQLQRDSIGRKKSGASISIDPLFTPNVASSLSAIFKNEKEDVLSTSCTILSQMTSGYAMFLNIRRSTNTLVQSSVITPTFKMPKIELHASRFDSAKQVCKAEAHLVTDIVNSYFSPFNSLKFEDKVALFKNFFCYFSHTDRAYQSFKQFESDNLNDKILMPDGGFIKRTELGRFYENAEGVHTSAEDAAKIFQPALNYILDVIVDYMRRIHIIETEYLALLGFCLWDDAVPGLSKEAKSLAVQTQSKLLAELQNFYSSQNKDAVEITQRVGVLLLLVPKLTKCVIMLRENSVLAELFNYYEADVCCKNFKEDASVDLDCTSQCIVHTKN

[4] = biological target: T4, HIZR-1 WT (Caenorhabditis elegans, UniProt G5ED47 1-412); assay: EMSA; apparent Kd; constant protein, variable labeled DNA; Licor Odyssey EMSA Buffer Kit per manufacturer; buffer composition, salt, pH and temperature not stated; conditions: protein: recombinant; tags: N-terminal 6xHis (pTrcHisA); label: IRDye700
T4 sequence: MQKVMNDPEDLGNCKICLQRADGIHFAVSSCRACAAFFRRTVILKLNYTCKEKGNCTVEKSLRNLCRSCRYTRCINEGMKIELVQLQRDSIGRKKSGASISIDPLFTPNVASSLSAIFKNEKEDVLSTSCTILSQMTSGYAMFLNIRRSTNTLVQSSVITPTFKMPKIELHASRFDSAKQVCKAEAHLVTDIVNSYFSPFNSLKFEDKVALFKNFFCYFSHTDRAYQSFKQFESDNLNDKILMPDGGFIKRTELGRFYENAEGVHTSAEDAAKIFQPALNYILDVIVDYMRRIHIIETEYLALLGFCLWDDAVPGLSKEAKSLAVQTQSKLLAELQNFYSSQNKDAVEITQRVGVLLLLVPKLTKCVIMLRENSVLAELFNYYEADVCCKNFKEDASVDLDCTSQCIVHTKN

[5] = biological target: T4, HIZR-1 WT; assay: competition; EMSA; 5-5000 nM unlabeled mutant vs labeled HZA; does not compete; Licor Odyssey EMSA Buffer Kit per manufacturer; buffer composition, salt, pH and temperature not stated; conditions: protein: recombinant; tags: N-terminal 6xHis (pTrcHisA)

B1: HZA WT, labeled (cdf-2 promoter) (dsDNA)
DNA 1: TGTGTTATCAATCATAAACTAGAACATGTCTCGAG
DNA 2: CTCGAGACATGTTCTAGTTTATGATTGATAACACA
**Q.** Does B1 bind [1]?
**A.** no binding

**Q.** Does B1 bind [2]?
**A.** no binding

**Q.** Does B1 bind [3]?
**A.** no binding

**Q.** And the Kd [4]?
**A.** 20.4 ± 6.8 nM

B2: Mutant HZA, unlabeled competitor (dsDNA)
DNA 1: TGTGTTATCAGAACATACAACATTAATGTCTCGAG
DNA 2: CTCGAGACATTAATGTTGTATGTTCTGATAACACA
**Q.** Does B2 bind [5]?
**A.** no binding

Source: PMC5240932, “The Nuclear Receptor HIZR-1 Uses Zinc as a Ligand to Mediate Homeostasis in Response to High Zinc”
